The labels stand for the following.
T1: recombinant PotH (E. coli) with C-terminal 10-His tag (E. coli, UniProt P31135 1-317)
T1 sequence (looked up): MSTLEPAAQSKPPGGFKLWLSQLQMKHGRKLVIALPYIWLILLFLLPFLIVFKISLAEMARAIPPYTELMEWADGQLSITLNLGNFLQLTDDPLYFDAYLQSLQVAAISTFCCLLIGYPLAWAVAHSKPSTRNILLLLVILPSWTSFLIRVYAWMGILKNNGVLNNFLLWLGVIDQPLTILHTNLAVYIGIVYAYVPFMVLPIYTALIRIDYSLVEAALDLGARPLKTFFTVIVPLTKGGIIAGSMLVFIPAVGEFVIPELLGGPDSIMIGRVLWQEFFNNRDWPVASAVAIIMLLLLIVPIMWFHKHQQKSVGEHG

B1: Cys(N)-N-104 immobilized on SulfoLink Coupling resin (peptide)
peptide: AQKLLKKFSLLKPWA

The target in assay [1] is T1, recombinant PotH (E. coli) with …. Nature of the assay: pull-down.
For assay [2], the target named is thrombin (F2) C-terminal peptide GKY20 (human). In words: far-Western, overlay or dot blot.
The target of assay [3] is B1. Nature of the assay: pull-down.
Assay [4] concerns the target thrombin (F2) C-terminal peptide GKY20 (human). In words: far-Western, overlay or dot blot. The source holds these as a separate data set.

Like-named read-outs stand apart in the source and are kept apart here. Ends that are not written are not given here.

For B1, the binding result in assay [1] was “binds”. Consider AQKSSKKSSSSKPSA (peptide, UniProt Q9GZZ8 124-138, looked up) [N-104 L108S/L109S/F112S/L114S/L115S/W118S], for which the binding result in assay [2] is recorded as “binds”. On to Ac-WMGILKNNGVLNNFLLWLGVIDQPLTILHTN-NH2 [PotH outer loop 2 synthetic peptide], for which the binding result in assay [3] is “binds”. Consider Ac-AQKLLKKFSLLKPWA [lacritin peptide N-104], for which, in assay [4], the binding result is reported as “binds”. The same measure, in the same setting: the result for AQKLLKKFSLLSPWA (peptide, UniProt Q9GZZ8 124-138, looked up) [N-104:K116S] reads “binds”. Still for that read-out and setting: the result for AQSLLKKFSLLKPWA (peptide, UniProt Q9GZZ8 124-138, looked up) [N-104:K107S] reads “binds”; that for AQKLLKSFSLLKPWA (peptide, UniProt Q9GZZ8 124-138, looked up) [N-104:K111S], “binds”; that for AQKLLKKFSLLKPSA (peptide, UniProt Q9GZZ8 124-138, looked up) [N-104:W118S], “binds”. Same read-out and setting: the same measure for AQKSLKKFSLLKPWA (peptide, UniProt Q9GZZ8 124-138, looked up) [N-104:L108S]: “binds”; for AQKLLSKFSLLKPWA (peptide, UniProt Q9GZZ8 124-138, looked up) [N-104:K110S]: “binds”. AQKLLKKSSLLKPWA (peptide, UniProt Q9GZZ8 124-138, looked up) [N-104:F112S]: the binding result in assay [4] was “binds”.

Turning to AQKLLKKFSLSKPWA (peptide, UniProt Q9GZZ8 124-138, looked up) [N-104:L115S], in assay [4], the binding result is “binds”.

Consider AQKLSKKFSLLKPWA (peptide, UniProt Q9GZZ8 124-138, looked up) [N-104:L109S], for which the binding result in assay [4] is reported as “binds”.

As to AQKLLKKFSSLKPWA (peptide, UniProt Q9GZZ8 124-138, looked up) [N-104:L114S], the binding result in assay [4] is recorded as “binds”.
